Measured values reported in the supplement of paper PMC10126150.
± gives the standard deviation of the averaged measurements.

Test system: ATP
Experiment: switch fluorescence ratio, 500 uM ATP over buffer (Cy3 cluster intensity, sum of 5 cycles each) (fold (ratio)); higher = stronger signal-on switching upon ATP binding; sequences stand for … in TCGTCGGCAGCGTCAGATGTGTATAAGAGACAGTTTTTTTTTTTTTTTTTTTTTTTTT…TC
Conditions: aptamer strand: ATP DNA aptamer (quencher-CACCTGGGGGAGTATTGCGGAGGAAGG + anchor), 100 nM annealed; ATP concentration: 500 uM
Outline: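 Between each of five buffer/ATP cycles, the flow-cell was stripped with NaOH and re-annealed. Each cycle imaged Cy3-labelled switching-strand clusters, annealed to 100 nM quencher-labelled ATP aptamer on a modified Illumina MiSeq flow-cell, first in selection buffer and then after 15 min with 500 uM ATP at 22 °C. The fluorescence ratio is summed target-cycle over summed buffer-cycle Cy3 intensity per cluster, averaged per switch-domain sequence, with clusters outside 100-1000 RFU excluded.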
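Also: ATP exposure 15 min at 22 °C before imaging.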

Sequence	switch fluorescence ratio
AGCTTCAGTC	1 ± 0.03
AGCTTGAGGT	0.9941 ± 0.0019
AGCTTGGAAA	1 ± 0.031
AGCTTGGGAA	0.9627 ± 0.0063
AGCTTTAGAC	1.09 ± 0.021
AGCTTTCCTA	0.9963 ± 0.007
AGCTTTCGCG	0.99 ± 0.03
AGCTTTCTAT	0.976 ± 0.011
AGCTTTTCTT	1.03 ± 0.017
AGCTTTTGGG	0.979 ± 0.071
AGCTTTTTTG	1.024 ± 0.0039
AGGAAAAAAG	1 ± 0.032
AGGAAAAAGG	0.974 ± 0.034
AGGAAAAAGT	1.02 ± 0.039
AGGAAAAATA	0.988 ± 0.053
AGGAAAATGG	1 ± 0.021
AGGAAAATTT	1 ± 0.047
AGGAAACCCG	0.994 ± 0.064
AGGAAATAGT	1.05 ± 0.059
AGGAAATTGT	1.01 ± 0.059
AGGAAGAACG	1.04 ± 0.02
AGGAAGGCAC	1.05 ± 0.016
AGGAAGTTAG	0.961 ± 0.022
AGGAATAAAC	1.02 ± 0.013
AGGAATATGG	1.04 ± 0.1

Sequence	switch fluorescence ratio
AGGAATTTGT	1.035 ± 0.0091
AGGACCAGGT	1.02 ± 0.025
AGGACCAGTT	1.03 ± 0.055
AGGACGAGGG	0.983 ± 0.013
AGGACTGAAG	0.989 ± 0.07
AGGACTTTAG	0.943 ± 0.091
AGGAGAAAAG	1.22 ± 0.29
AGGAGATACC	1.03 ± 0.049
AGGAGATTAG	0.978 ± 0.029
AGGAGCATTT	1.04 ± 0.045
AGGAGGAGGG	0.932 ± 0.021
AGGAGGCAGG	1.03 ± 0.011
AGGAGGCGCG	1.05 ± 0.1
AGGAGGGCTC	1.01 ± 0.11
AGGAGGTGGC	1.03 ± 0.017
AGGAGGTGTC	1.06 ± 0.11
AGGAGTACCA	1.04 ± 0.015
AGGAGTGGAG	0.996 ± 0.013
AGGAGTGTCG	1.04 ± 0.039
AGGATAAGGA	0.987 ± 0.029
AGGATAATGA	0.998 ± 0.03
AGGATCGAGG	1.02 ± 0.028
AGGATCGTCA	0.9893 ± 0.0038
AGGATGAAAG	0.9896 ± 0.0034
AGGATGAATA	0.9974 ± 0.0019
